“Also recorded” adds a separate entry of the source.
Biological target: T1, corin WT (Homo sapiens, UniProt Q9Y5Q5)
T1 construct: expressed in transfected cells; host or cells: HEK293
T1 sequence (Q9Y5Q5 1-1042): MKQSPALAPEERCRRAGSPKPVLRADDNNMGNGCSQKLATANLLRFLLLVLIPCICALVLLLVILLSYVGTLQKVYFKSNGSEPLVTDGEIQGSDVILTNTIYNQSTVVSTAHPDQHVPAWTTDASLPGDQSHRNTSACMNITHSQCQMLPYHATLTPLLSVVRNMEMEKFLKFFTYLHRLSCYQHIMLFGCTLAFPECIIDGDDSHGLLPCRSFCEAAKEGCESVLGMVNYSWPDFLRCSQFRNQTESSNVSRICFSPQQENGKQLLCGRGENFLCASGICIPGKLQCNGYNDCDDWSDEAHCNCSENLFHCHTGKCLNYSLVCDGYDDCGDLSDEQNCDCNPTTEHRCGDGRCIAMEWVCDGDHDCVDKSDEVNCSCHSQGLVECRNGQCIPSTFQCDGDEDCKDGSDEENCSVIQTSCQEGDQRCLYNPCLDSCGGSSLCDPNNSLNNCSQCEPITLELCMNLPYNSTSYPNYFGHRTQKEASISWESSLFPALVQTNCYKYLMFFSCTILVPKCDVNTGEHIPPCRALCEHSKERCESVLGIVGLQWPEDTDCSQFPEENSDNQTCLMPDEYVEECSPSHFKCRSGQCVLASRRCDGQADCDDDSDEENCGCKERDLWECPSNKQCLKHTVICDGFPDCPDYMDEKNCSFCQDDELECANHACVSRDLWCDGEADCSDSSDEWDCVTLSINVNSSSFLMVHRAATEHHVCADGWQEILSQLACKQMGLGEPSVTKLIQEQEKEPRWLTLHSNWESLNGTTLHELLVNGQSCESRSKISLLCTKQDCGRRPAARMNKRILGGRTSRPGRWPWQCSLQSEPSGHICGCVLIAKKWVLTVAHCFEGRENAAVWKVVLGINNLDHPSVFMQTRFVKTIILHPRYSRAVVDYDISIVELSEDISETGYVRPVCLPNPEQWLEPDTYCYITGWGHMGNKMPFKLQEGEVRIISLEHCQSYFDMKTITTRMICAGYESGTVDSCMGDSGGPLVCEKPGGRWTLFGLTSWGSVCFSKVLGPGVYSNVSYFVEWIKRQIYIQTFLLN
Experiment: Corin activation by purified PCSK6 on HEK293 cells, corin WT
Type: cell-based
Settings: increasing concentrations, 2 h, 37° C.
Protocol: HEK293 and HL-1 cells expressing recombinant corin in 6-well plates were incubated with 1.5 mL (200 μM) of membrane impermeable Sulfo-NHS-SS-biotin for 5 min. Qi et al., J Biol Chem 286, 20963-20969 (2011). A quenching solution was added to the wells and incubated on ice for 10 min. Cells were lysed in the lysis buffer. Labeled proteins were isolated with avidin-coupled agarose beads and analyzed by Western blotting.
Stable HEK293 cells were established to produce human PCSK6 with a C-terminal flag tag. The cells were cultured in DMEM with 10% FBS and 600 μg/mL G418. At confluency, the cells were washed with PBS and cultured with Reduced-Serum Medium. After 72 h, the conditioned medium was collected, centrifuged (10 min at 17,000 g) to remove cell debris, and concentrated to ⅕ of the original volume using a Centrifugal filter unit at 4° C. The concentrated medium was incubated with anti-flag M2 affinity bead slurry in a volume ratio of 25:1 on a rotator at 4° C. for 2 h. […] After centrifugation, the supernatant containing purified PCSK6 was collected, and analyzed by SDS-PAGE followed by silver staining and Western blotting.
Stable HEK293 cells expressing human corin were cultured in 6-well plates in DMEM with 10% FBS and 2 μM monensin. […] After 2 h, cell surface proteins were labeled and corin protein was analyzed by Western blotting.

B1: proprotein convertase subtilisin/kexin-6 (protein, listed as Homo sapiens)
chain: MPPRAPPAPGPRPPPRAAAATDTAAGAGGAGGAGGAGGPGFRPLAPRPWRWLLLLALPAACSAPPPRPVYTNHWAVQVLGGPAEADRVAAAHGYLNLGQIGNLEDYYHFYHSKTFKRSTLSSRGPHTFLRMDPQVKWLQQQEVKRRVKRQVRSDPQALYFNDPIWSNMWYLHCGDKNSRCRSEMNVQAAWKRGYTGKNVVVTILDDGIERNHPDLAPNYDSYASYDVNGNDYDPSPRYDASNENKHGTRCAGEVAASANNSYCIVGIAYNAKIGGIRMLDGDVTDVVEAKSLGIRPNYIDIYSASWGPDDDGKTVDGPGRLAKQAFEYGIKKGRQGLGSIFVWASGNGGREGDYCSCDGYTNSIYTISVSSATENGYKPWYLEECASTLATTYSSGAFYERKIVTTDLRQRCTDGHTGTSVSAPMVAGIIALALEANSQLTWRDVQHLLVKTSRPAHLKASDWKVNGAGHKVSHFYGFGLVDAEALVVEAKKWTAVPSQHMCVAASDKRPRSIPLVQVLRTTALTSACAEHSDQRVVYLEHVVVRTSISHPRRGDLQIYLVSPSGTKSQLLAKRLLDLSNEGFTNWEFMTVHCWGEKAEGQWTLEIQDLPSQVRNPEKQGKLKEWSLILYGTAEHPYHTFSAHQSRSRMLELSAPELEPPKAALSPSQVEVPEDEEDYTAQSTPGSANILQTSVCHPECGDKGCDGPNADQCLNCVHFSLGSVKTSRKCVSVCPLGYFGDTAARRCRRCHKGCETCSSRAATQCLSCRRGFYHHQEMNTCVTLCPAGFYADESQKNCLKCHPSCKKCVDEPEKCTVCKEGFSLARGSCIPDCEPGTYFDSELIRCGECHHTCGTCVGPGREECIHCAKNFHFHDWKCVPACGEGFYPEEMPGLPHKVCRRCDENCLSCAGSSRNCSRCKTGFTQLGTSCITNHTCSNADETFCEMVKSNRLCERKLFIQFCCRTCLLAG
modifications: C-terminal FLAG tag
  activation of corin on the cell surface by purified recombinant PCSK6: activated corin on the surface of HEK293 cells in a dose-depending manner; also recorded: activated corin WT

— US10314894B2, “Treatment of cardio-renal disease using PCSK6” (THE CLEVELAND CLINIC FOUNDATION, priority 2014, dated 2019)
